Measurements from US20240218057A1 (ROCKEFELLER UNIVERSITY, published 2024).

B1: C996 (antibody, V domains shown)
VH: EVQLVESGGGLVQPGGSLRLSCVASGFTSTNYDMHWVRQAPGRGLQWVSSIGTAGDTYYPGSVRGRFTISRENAKNSLDLQMNSLRVGDTAVYYCARGQRGYYDRSGYYWGWRAFDIWGQGTMVTVSS
VL: SYELTQPPSVSVAPGQTARITCGGNNIGNKSVYWYQQKPGQAPVLVVYDDSGRPSGIPERFSGSNSANTATLTISRVEAGDEADYYCQVWDNNSDQFGGGTKLTVL
notes: IgG; V domains only
B2: C1006 (antibody, V domains shown)
VH: QVQLVQSGAEVRKPGSSVKVSCKASGGPFDQYTFSWVRQAPGQGLEWMARITPVVDLTNYAQKFQGRITIITDKSTSTAYMELSSLRSEDTAIYYCATPLNDYYASGNLGLWGQGTLVTVSS
VL: DIQMTQSPSSLSASIGDRVTITCRASQGISYYLAWFQQKPGEAPRSLIYDASSLQSGVPSKFSGSGSGTDFTLTISSLQPEDSATYYCQQYNSYPLTFGGGTKVEIK
notes: IgG; V domains only
B3: C1007 (antibody, V domains shown)
VH: QVQLVQSGSEMKKPGSSVKVSCKAAGGTLNTHTFSWVRQAPGQGLEWMGRITPTVDLTNYAQKFQGRITITADTSTNTAYLELRRLRSEDTAIYYCATPLNDYYASGNLGLWGQGTLVTVSS
VL: DIQMTQSPSSLSASIGDTVTITCRASQGISYYLAWFQRKPGKAPKSLIYDASSLQSGVPSKFSGSGSGTDFTLTISSLQPEDSATYYCQQYSTYPLTFGGGTKVEIK
notes: IgG; V domains only
B4: C981 (antibody, V domains shown)
VH: EVQLVESGGGLVQPGGSLRLSCAASGFTFSNYDMHWVRQVTGNGLEWVAAIGTSGDTYYPDSVKGRFTISRENVKNSLFLQMNSLRAGDTAVYYCARGGSSSWLWYFDLWGRGTLV
VL: DIQMTQSPSSLSASVGDRVTITCRASQSISSHLNWYQQKPGKVPKLLIYAASTLQSGVPSRFSGSGSGTDFTLTISSLQPEDFATYYCQQSYSMPPVTFGQGTRLEIK
notes: IgG; V domains only
B5: C978 (antibody, V domains shown)
VH: QVQLVQSGAEVKKPGSSVKVSCKASGATFSNYIISWVRQAPGQGLEWMGRTIPLLDIANYAQKFQGRVTITADKSTRIVYMHLGSLTSEDTAVYYCATGKGYSSSSAAYYFDHWGQGTLVTVSS
VL: QSVLTQPPSVSGAPGQRVTISCTGTNSNIGAGYDIHWYQQLPGTAPKLLIYGSNNRPSGVPDRFSGSKSGTSASLAITGLQAEDEADYYCQSYDSSLSGSEVFGGGTKLTVL
notes: IgG; V domains only
B6: C976 (antibody, V domains shown)
VH: EVQLVESGGALIQPGGSLRLSCAASGFTVSSNDMTWVRQAPGKGLEWVSVIYTGGGTYHADSAKGRFIISRHNSKNTLSLQMNDLRAEDTAVYYCARLTMTTYYFDSWGQGTLVTVSS
VL: SYELTQPPSVSLAPGQTARITCGGNGIGSKSVHWYQQKPGRAPVLVVYDDSVRPSGTPARFSGANSGNTATLTISRVEAGDEADYYCQVWDSFRDHQDWVFGGGTKLTVL
notes: IgG; V domains only
B7: C982 (antibody, V domains shown)
VH: EVQLVESGGGLVQPGGSLRLSCAASGFTFSNYDMHWVRQPTGGGLEWVSAIGTAGDTYYLASVKGRFTISRENAKNSLSLQMNSLRAGDTAVYYCVRGDTLVQGVIKAYYYYFMDVWGQGITVTVSS
VL: DIQMTQSPSSLSASVGDRVTITCRASQNISRYLNWYQQKPGKAPRLLIYAASTLQSGVPSRFSASGSGTDFTLTITNLQPEDFAVYYCQQTYVMPPYTLAQGTKLEIK
notes: IgG; V domains only
B8: C997 (antibody, V domains shown)
VH: EVQLLESGGGLVQPGGSLRLSCAASGFTFSKDAMSWVRQAPGKGLEWVSTVTGSGTNTYYADSVKGRFTISRDNSNNTLYLQMNSLRAEDTAVYYCANHPLGAAEGYYYYYMDVWGKGTTVTVSS
VL: EIVLTQSPGTLSLSPGERGTLSCRASQRVPSSQLAWYQQKSGQAPRLLIYGASSRASGIPDRFSGSGSGTDFTLNISRLEPEDFAVYYCQQYGSLRALTFGGGTKVEIK
notes: IgG; V domains only
B9: C993 (antibody, V domains shown)
VH: EVQLLESGGGLVQPGGSLRLSCAASGFPFSIYAMSWVRQAPGKGLEWVSGMRGTTGTTYYADSVKGRFAISRDNSKNMLHLQMNSLRAEDTAVYYCAKSDHGDYVIGAFDIWGQGTMVTVSS
VL: QSALTQPPSASGSPGQSVTISCTGTSGDVGGYNYVSWYQQHPGKAPKLMIYEVSKRPSGVPDRFSGSKSGNTASLTVSGLQAEDEADYYCNSYAGSNNWVFGGGTKLTVL
notes: IgG; V domains only
B10: C995 (antibody, V domains shown)
VH: EVQLVESGGGLIQPGRSLRLSCTASGFSVGDYAMSWFRQAPGKGLEWVGFLRNQHYGGTAEYAASVKGRFSISTDASKNIVYLQMDSLKTEDTAVYYCARNDRYIVIVPAEMLYWGQGTLVTVSS
VL: EIVMTQSPATLSVSPGERATLSCRATESVYSNLAWYQQKPGQAPRLLMYDASTRAPGIPARFSGSGSGTEFTLTISSLQSEDFATYYCQQYSNWPPITFGQGTRLEIK
notes: IgG; V domains only
B11: C983 (antibody, V domains shown)
VH: QVQLVESGGGVVRPGRSLRLSCAASGFTFSKYGMHWVRQAPGKGLECVASIAYDGSDDSYADSVKGRFIISRDNSKNTLYLQMNSLRAADTAVYYCAKVLGSYCSASSCHGQRPDYWGQGTLVTVSS
VL: DIQMTQSPSSLSAYVGDRVTITCQASQDISNHLNWYQQKPGKAPNLLIYDASNLETGVPSRFSGSGSGTDFSFTISSLQPEDIATYYCQQYDNVPPWTFGQGTKVEIK
notes: IgG; V domains only
B12: C1002 (antibody, V domains shown)
VH: EVQLVESGGGLVQPGGSLRLSCAASEFIVSSNYMTWVRQAPGKGLEWVSIMYPGGSTFYADSVKGRFTISRDNSKNTLYLQINRLRAEDTAVYYCARDIAGRLDYWGQGTLVTVSS
VL: DIQMTQSPSSLSASVGDRVTITCQASQDINNYLNWYQQKPGKAPKLLIYDASNLETGVPSRFSGSGSGTDFSFTISSLQPEDIATYYCQQYDNLSRLTFGGGTKVEIK
notes: IgG; V domains only
B13: C977 (antibody, V domains shown)
VH: EVQLVESGGGLVQPGGSLRLSCAASGFTFSNYDMHWVRQVTGKGLEWVSLIGTAADAYYADSVKGRFTISRENAKNSLYLQINSLRAGDTAVYFCARGDSSGLYTFFDYWGQGTLVTVSS
VL: DIQMTQSPSSLSASVGDRVTITCRASQSVTRYLNWYQLKPGKAPKLLIYAASSLQSGVPSRFSGSGSGTDFTLTISSLQPEDFATYYCQQSYSTLGLTFGGGTKVEI
notes: IgG; V domains only
B14: C1001 (antibody, V domains shown)
VH: QVQLQESGPGLVKPSQTLSLTCTVSGGSISSGDYYWTWIRQPPGKGLEWIGYIFYSGITYYSPSLKSRLTMSIDTSKSQFSLNLSSVTAADTAVYYCARWKRLLQSLHFDYWGQGILVTVSS
VL: QSALTQPRSVSGSPGQSVTISCTGTSSDVGSYDYVSWYQQHPGKAPKVMIYGVDERPSGVPHRFSGSKSGNTASLTISGLQADDEADYFCCFYAGSYTLLFGGGTKVTVL
notes: IgG; V domains only
B15: C1003 (antibody, V domains shown)
VH: QVQLVESGGGVVQPGRSLRLSCAASGFAFSSYGMNWVRQAPGKGLEWVTTVSSDGNVNYYIDSVKGRFTISRDNSKNTLYLQMNSLRGDDTAVYYCAKGPRFGWSYRGGSGFDIWGQGTMVTVSS
VL: DIQMTQSPSSLSASVGDRVTITCQASQDISNYLNWYQQKPGKAPKLLIYDASNLETGVPSRFSGSGSGTDFTFTITSLQPEDIATYYCQQYDNLPITFGQGTRLEIK
notes: IgG; V domains only
B16: C998 (antibody, V domains shown)
VH: QVQLVQSGAEVKKPGASVKVSCKTSGYTFISYYIHWVRQAPGQGLEWMGIINPDGDNTNYAQKFQGRVTMTRDTSTSTVYMELSSLRFEDTAVYYCARGGAIPALRTAFDIWGQGTMVTVSS
VL: DIQMTQSPSTLSASVGDRVTITCRASQSISNWLAWYQQKPGKAPKLLIYKASSLESGVPSRFSGSGSGTEFTLTISSLQPDDFATYYCQEYNSYYFGQGTKLEIK
notes: IgG; V domains only
B17: C999 (antibody, V domains shown)
VH: QVQLVQSGAEVRRPGASVKVSCKASGYTLTHYYIHWVRQAPGQGLEWVGIINPDGDNTNYAQKFQGRVTMTRDTSTSTVYMELSSLRSEDTAIFYCARGGAIPALRSAFDIWGQGTMVTVSS
VL: DIQMTQSPSTLSASVGDRVTITCRASQSINNWLAWYQQKPGKAPKLLIYKASTLESGVPSRFSGSGSGTEFTLTISSLQPDDFATYYCQQYNSYFFGQGTKLEIK
notes: IgG; V domains only
B18: C984 (antibody, V domains shown)
VH: QVQLVQSGTEVKKPGDSVQVSCKTSGYSFTGYYIHWVRQAPGQGLEWMGRINPNSGGTNYAQKFQGRVIMTRDTSITTAFMELTRLRYDDTAVYFCAREPIEGVIGGMIVNYYYMDVWGRGTTVTVSS
VL: QSALTQPASVSGSPGQSITISCTGTSSDVGGYYYVSWYQQHPGKAPKLMIYDVSSRPSGVSNRFSGSKSGNTASLTISGLQAEDEADYYCSSYTSSNTLVVFGGGTKLTVL
notes: IgG; V domains only
B19: C985 (antibody, V domains shown)
VH: QVQLVQSGAEVKKPGASVKVSCKASGYIFTGYYMHWVRQAPGQGLEWMGRINPNSGGSRYAEKFQGRVTMTRDTSIITAFMELRGLKSDDTAVYYCAREPIEAVPAGIIVNYYYMDVWGNGTTVTVSS
VL: QSALTQPASVSGSPGQSITISCTGTSSDVGGYNYVSWYQQHPGKAPKLMIYDVTSRPSGVSDRFSGSKSGTTASLTISGLQAEDEADYYCSSFTSAFTLVVFGGGTKLTVL
notes: IgG; V domains only
B20: C979 (antibody, V domains shown)
VH: QVQLVESGGGVVQPGRSLRLSCVASGFTFSNYGMHWVRQAPGKGLEWVAVILYDGSDKYYLDSVKGRFTISRDNSKNTLFLQLNSLRAEDTAVYYCAKEGNGYGYQYAGMDVWGQGTTVTVS
VL: QSALTQPASVSGSPGQSITISCTGTNSDVGGYDYVSWYQQHPGKAPKLIIFEVINRPSGVSNRFSGSKSGNTASLTISGLRAEDEADYYCCSYTTSTTRVFGGGTKLTVL
notes: IgG; V domains only
B21: C1000 (antibody, V domains shown)
VH: QVQLQESGPGLVKPSQTLSLSCTVSGGSISSDDYYWSWIRQPPGKGLEWIGYIYYSGSTYYNSSLKSRVSISVDTSKNQFSLKLSSVTAADTAVYYCARWKRWLQFLYFDYWGQGTLVTVSS
VL: QSALTQPRSVSGSPGQSVTISCTGTSSDVGGYSFVSWYQQHPGKAPKVLIYDVDKRPSGVPDRLSGSKSGNTASLTISGLQAEDEADYYCCSYAGSYTLIFGGGTKLTVL
notes: IgG; V domains only
B22: C994 (antibody, V domains shown)
VH: QVQLQESGPGLVKPSGTLSLTCAVSGVSISNTNWWNWVRQPPGKGLEWIGEIYHTGSARYNPSLRSRVTISVDKSKNQFSLRLNSATAADTAIYYCARAQTPEFGELLYWGQGALVTVSS
VL: DIQMTQSPSSLSASVGDRVTITCRASQSITDHLNWYQQKPGKAPKLLIYAASSLQTGVPSRFSGSGSETDFTLTISTLQPEDFATYYCQQSYGPPTYSFGQGTKLEIK
notes: IgG; V domains only

target: T1, SARS-COV-2 RBD (SARS-COV-2, UniProt P0DTC2 319-539); assay: ELISA, RBD coated
T1 construct: also called WT RBD

Point of comparison: B10, EC50 3.79 ng/mL. Against it:
- B1 — within 1.5-fold, 3.07 ng/mL
- B2 — 1.9-fold lower, 2.04 ng/mL
- B3 — within 1.5-fold, 3.22 ng/mL
- B4 — 1.8-fold lower, 2.12 ng/mL
- B5 — 1.8-fold lower, 2.09 ng/mL
- B6 — 1.5-fold lower, 2.52 ng/mL
- B7 — within 1.5-fold, 2.56 ng/mL
- B8 — within 1.5-fold, 3.49 ng/mL
- B9 — 1.7-fold lower, 2.29 ng/mL
- B11 — 1.8-fold lower, 2.11 ng/mL
- B12 — 4.6-fold lower, 0.83 ng/mL
- B13 — 1.8-fold lower, 2.13 ng/mL
- B14 — within 1.5-fold, 3.23 ng/mL
- B15 — 2.1-fold lower, 1.82 ng/mL
- B16 — 1.5-fold lower, 2.51 ng/mL
- B17 — within 1.5-fold, 2.68 ng/mL
- B18 — within 1.5-fold, 2.76 ng/mL
- B19 — within 1.5-fold, 3.67 ng/mL
- B20 — within 1.5-fold, 2.54 ng/mL
- B21 — within 1.5-fold, 3.2 ng/mL
- B22 — 1.8-fold lower, 2.09 ng/mL
